The results in this text go back to US20140234325A1 (ALBERT EINSTEIN COLLEGE OF MEDICINE, published 2014).

The target in test [1] is T1, staphylococcal enterotoxin A (SEA) (Staphylococcus aureus, UniProt P0A0L1 25-257).
T1 sequence: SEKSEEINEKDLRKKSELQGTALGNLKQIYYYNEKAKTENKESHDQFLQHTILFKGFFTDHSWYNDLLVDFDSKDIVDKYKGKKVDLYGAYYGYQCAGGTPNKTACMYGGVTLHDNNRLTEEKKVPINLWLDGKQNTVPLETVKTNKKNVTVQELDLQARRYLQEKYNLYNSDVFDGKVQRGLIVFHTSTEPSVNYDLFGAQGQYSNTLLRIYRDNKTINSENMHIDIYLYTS
Briefly: Western blot with purified toxin.

Test [2] has as its target T2, toxic shock syndrome toxin-1 (TSST-1) (Staphylococcus aureus, UniProt P06886 41-234).
T2 sequence: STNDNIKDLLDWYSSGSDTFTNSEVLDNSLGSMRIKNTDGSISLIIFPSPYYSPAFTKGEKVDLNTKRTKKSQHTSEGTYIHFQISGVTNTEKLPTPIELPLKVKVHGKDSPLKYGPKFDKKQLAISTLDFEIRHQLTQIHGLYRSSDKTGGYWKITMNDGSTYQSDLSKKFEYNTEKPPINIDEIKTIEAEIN
Description: Western blot with purified toxin.

B1: mAb 20B1 (antibody, V domains shown)
VH: QIQLVQSGPELKKPGETVRISCKASGYIFTIAGIQWVQKMPGRGLRWIGWINTHSGVPEYAEEFKGRFAFSLETSARTAYLQISNLKDEDTATYFCARIYYGNNGGVMDYWGQGTSVTVSS
VL: DIQMTQSPSSLSASLGERVSLTCRASQEISDYLTWLQQKPDGTIKRLIYVASSLDSGVPKRFSGSRSGSDYSLTISSLESEDFADYYCLQYANYPWTFGGGTKLEIR
B1: the binding result in test [1] and in test [2] was “no binding” in each case.

B2: mAb 14G8 (antibody, V domains shown)
VH: EVQLLESGGGLVQPGGSLKLSCATSGFTFSAYGLSWVRQTPERRLEWVASISGGGSVYYPDSVKGRFTISRDTAGDILFLQMNSLRSEDSAIYYCVRDLYGDYVGRYAYWGQGTLVIVSA
VL: DIVMTQSPATLSVTPGDRVSLSCRASQSIGDYLHWYQQKSHESPRLLINYASQSISGIPSRFSGSGSGSDFTLIINSVEPEDVGVYYCQNGHSFPYTFGGGTKLEIR
Take B2: the binding result in test [1] and in test [2] was “no binding” in each case.

B3: mAb 6D3 (antibody, V domains shown)
VH: QVQLQQSGAELVKPGASVKLSCKASGYTFTSHWMHWVKQRPGQGLEWIGEIDPSDSYINYNQIFEGKATLTVDKSSTTAYLQLSSLTSEDSAVYYCARTAGLLAPMDYWGQGTSVTVSS
VL: DIVMTQSPSSLTVTAGEKVTMTCKSSQSLFNSGNQKNFLTWYQQIPGQPPKLLIYWASTRDSGVPDRFTGSGSGTDFTLTISSVQAEDLAVYYCQNDYTYPLTFGVGTKLELK
In the case of B3, the binding result in test [1] and in test [2] was “no binding” in each case.
